Substrate in data set [1]: OC[C@H]1O[C@@](CO)(O[C@H]2O[C@H](CO)[C@@H](O)[C@H](O)[C@H]2O)[C@@H](O)[C@@H]1O
The experiment in a line: initial rates, Michaelis-Menten fit. It is filed as biochemical, Metschnikowia gruessii. Particulars: 0-225 mM sucrose, standard assay 50 mM sodium phosphate pH 7.0, 30 °C.

Substrate in data set [2]: OC[C@H]1O[C@@](CO)(O[C@H]2O[C@H](CO)[C@@H](O)[C@H](O)[C@H]2O)[C@@H](O)[C@@H]1O
The experiment in a line: initial rates, Michaelis-Menten fit. It is filed as biochemical, Metschnikowia reukaufii. Particulars: 0-225 mM sucrose, standard assay 50 mM sodium phosphate pH 7.0, 30 °C.

Changes are numbered by the printed parent chain.

B1: Mg-αGlu (Metschnikowia gruessii) (protein)
chain: MTDAIWWKDASVYQIWPASYKDSNGDGFGDIPGVISTLDYIKNLGVDVIWLSPMYDSPQDDMGYDVADYENVYPKYGTLEDMDTLISEVHARGMKLILDLVINHTSTAHKWFEESKSDKENPKRDWYIWKPARYDEDGNRHPPNNWQSYFSGSAWEYDENTDEYYLHLFAKSQPDLNWENDETRQAIYDSALTFWFEKGVDGFRIDTAGMYSKVQTFEDAPIVFPDLEWQPCTDFHQSGPRIHEFHKEMFEKVTSKYDAMTVGEVGHSSREDALKYVSAQEKEMNMMFLFDLVEVGSNPSDRFRYDGFKLTDFKQAVSNMSSFSEGTDAWSTCFFENHDQPRCITRFGNDSPEYLFRSGKMLATLLTSLTGTLFIYQGQEFGMTNVPLEWNIDEYKDINTVNYYQLYVEKNGEENVGELIKNINLVARDNARTPVQWDGTENGGFSTGQPWMRVNDNYQQVNAASQVNDPESLYNFYKKALEVRKEHKDVLIYGSLEIIDFDDERVFSFYKKSGDKTAYVVLNFTKDPIDFKPAVESELELVLTNEREIRDDVLSPYESRLYIVKN
A word on the Km: it is the concentration of substrate that gives half-maximal velocity. What is called kcat is the maximal rate divided by the concentration of active sites. What is called kcat/Km is the second-order rate constant that governs catalysis at low substrate concentration. Turning to B1, in data set [1], the Km was found to be 54.1 ± 5.8 mM, the kcat was found to be 270 ± 10.9 s⁻¹ and the kcat/Km worked out at 4900 ± 700 M⁻¹ s⁻¹.

B2: Mr-αGlu (Metschnikowia reukaufii) (protein)
chain: B1 chain with T233A, S300K, R304I, S318A
For the protein B2, in data set [2], the Km was 64.9 ± 4.6 mM, the kcat is 477 ± 13.7 s⁻¹ and the kcat/Km was 7400 ± 700 M⁻¹ s⁻¹.
